The results in this text go back to patent publication US20140120095A1 (Boehringer Ingelheim, published 2014).

The target in experiment [1] is T1, human DLL4 overexpressed on cells (human, UniProt Q9NR61 27-685). The experiment can be described thus: cell-based or functional assay.
Experiment [2] addresses T2, recombinant human DLL4 (human, UniProt Q9NR61 25-522). Put plainly: cell-based or functional assay.
Experiment [3] deals with T2, recombinant human DLL4. Put plainly: binding ELISA, coated rhDLL4. As to the method: (§1) In order to determine cross-reactivity to mouse DII4 a binding ELISA is performed. […] Wells are blocked with a casein solution (1% in PBS). VHHs are applied as dilution series and binding is detected using a mouse anti-myc (Roche) and an anti-mouse-AP conjugate (Sigma, St Louis, Mo., USA) (FIG. 7 A-H). As reference, binding to human DII4 is measured.
(In an ELISA, binding on a coated surface is turned into a signal by an enzyme label.)

Experiment [4] concerns the target T2, recombinant human DLL4. Put plainly: Biacore off-rate, periplasmic extract.
Experiment [5] deals with T1, human DLL4 overexpressed on cells. The experiment can be described thus: competitive FMAT, hNotch1-Fc on CHO-hDLL4.
Experiment [6] shares this target. The experiment can be described thus: FACS titration on HEK293-hDLL4 cells, MCF. The method, then: In order to determine the cynomologus cross-reactivity of the VHHs, a FACS binding experiment is performed. Cynomolgus DII4 expressing HEK293 cells (transient or stable transfection) are used for a titration binding experiment of the VHHs. After a 30 minutes incubation on ice, all samples are washed and detection is performed by applying anti-c-myc˜Alexa647 (Santa Cruz Biotechnology, Santa Cruz, Calif., USA). Human and mouse DII4 overexpressing HEK293 cells are taken as reference. The mean MCF value is determined on the FACS Array and used for calculation of the EC₅₀ value (see FIG. 9 A-E).

The target of experiment [7] is T3, cynomolgus DLL4 overexpressed on cells (cynomolgus, UniProt Q9NR61 27-685 (human entry)).
T3 construct: also called cyno DII4; cDLL4
T3 chain: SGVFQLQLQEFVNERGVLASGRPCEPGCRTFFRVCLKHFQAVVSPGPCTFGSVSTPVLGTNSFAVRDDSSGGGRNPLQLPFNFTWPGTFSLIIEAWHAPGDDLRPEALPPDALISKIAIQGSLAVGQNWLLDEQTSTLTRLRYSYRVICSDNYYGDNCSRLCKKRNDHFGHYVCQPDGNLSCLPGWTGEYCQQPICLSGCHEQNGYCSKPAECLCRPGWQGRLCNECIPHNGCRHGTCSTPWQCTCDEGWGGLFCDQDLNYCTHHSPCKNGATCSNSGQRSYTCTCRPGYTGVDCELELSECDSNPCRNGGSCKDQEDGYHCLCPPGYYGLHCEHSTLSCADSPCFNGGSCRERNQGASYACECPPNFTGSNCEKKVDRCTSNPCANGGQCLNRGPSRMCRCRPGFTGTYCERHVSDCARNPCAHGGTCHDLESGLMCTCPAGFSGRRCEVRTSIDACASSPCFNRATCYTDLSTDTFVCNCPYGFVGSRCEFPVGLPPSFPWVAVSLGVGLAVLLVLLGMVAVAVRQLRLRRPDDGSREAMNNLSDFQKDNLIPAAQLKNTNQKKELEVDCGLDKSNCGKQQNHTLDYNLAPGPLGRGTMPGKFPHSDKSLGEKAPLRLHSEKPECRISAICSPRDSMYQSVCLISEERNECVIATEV
The experiment can be described thus: FACS titration on HEK293-cDLL4 cells, MCF. In short, it runs like this:
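HEK293 cells overexpressing DLL4 (transient or stable) were incubated with VHH titrations for 30 min on ice. After washing, binding was detected with anti-c-myc-Alexa647 by flow cytometry, and the mean MCF was used to calculate EC50.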

The target in experiment [8] is T2, recombinant human DLL4. The experiment can be described thus: competition ELISA, biot-hDLL4 to coated hNotch1-Fc. The source says: Residual binding of biotinylated human DII4 is detected using horseradish peroxidase (HRP) conjugated extravidin (Sigma, St. Louis, Mo., USA) (FIG. 3 A-C). Human DII4 is biotinylated as described above.
Experiment [9] deals with T1, human DLL4 overexpressed on cells. Put plainly: FMAT, labelled hNotch1-Fc on CHO-hDLL4, periplasmic extract. The source says: (§2) All calculations are based on the FL1_total signal which comprises the average of the fluorescence per well times the number of counts per well.
Experiment [10] deals with T4, mouse DLL4 overexpressed on cells (mouse, UniProt Q9JI71 27-686).
T4 construct: whole, on cells; also called CHO-mDLL4; CHO-mDII4
The experiment can be described thus: FMAT, labelled hNotch1-Fc on CHO-mDLL4, periplasmic extract.
Excerpt: as §2
Target sequence in this assay (Q9JI71 27-686): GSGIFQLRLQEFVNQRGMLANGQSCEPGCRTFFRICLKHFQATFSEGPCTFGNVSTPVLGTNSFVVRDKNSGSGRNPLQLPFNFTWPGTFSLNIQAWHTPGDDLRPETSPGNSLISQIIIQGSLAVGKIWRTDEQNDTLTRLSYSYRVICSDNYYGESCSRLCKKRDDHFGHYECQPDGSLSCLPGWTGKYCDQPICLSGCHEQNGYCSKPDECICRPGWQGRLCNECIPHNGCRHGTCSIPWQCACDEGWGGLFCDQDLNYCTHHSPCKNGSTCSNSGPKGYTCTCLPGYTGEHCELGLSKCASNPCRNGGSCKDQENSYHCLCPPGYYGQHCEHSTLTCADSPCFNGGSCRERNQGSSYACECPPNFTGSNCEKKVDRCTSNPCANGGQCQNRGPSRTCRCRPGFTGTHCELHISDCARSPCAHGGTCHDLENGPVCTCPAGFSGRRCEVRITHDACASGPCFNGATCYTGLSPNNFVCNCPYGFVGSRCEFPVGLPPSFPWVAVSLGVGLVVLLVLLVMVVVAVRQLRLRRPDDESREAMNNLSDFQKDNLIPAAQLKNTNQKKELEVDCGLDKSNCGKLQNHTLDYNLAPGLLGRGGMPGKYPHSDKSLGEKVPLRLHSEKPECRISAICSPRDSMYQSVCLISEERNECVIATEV

For the next experiment, the target named is T5, recombinant mouse DLL4 (mouse, UniProt Q9JI71 27-532).
T5 construct: extracellular domain; also called rmDLL4; mDLL4
T5 sequence (Q9JI71 27-532): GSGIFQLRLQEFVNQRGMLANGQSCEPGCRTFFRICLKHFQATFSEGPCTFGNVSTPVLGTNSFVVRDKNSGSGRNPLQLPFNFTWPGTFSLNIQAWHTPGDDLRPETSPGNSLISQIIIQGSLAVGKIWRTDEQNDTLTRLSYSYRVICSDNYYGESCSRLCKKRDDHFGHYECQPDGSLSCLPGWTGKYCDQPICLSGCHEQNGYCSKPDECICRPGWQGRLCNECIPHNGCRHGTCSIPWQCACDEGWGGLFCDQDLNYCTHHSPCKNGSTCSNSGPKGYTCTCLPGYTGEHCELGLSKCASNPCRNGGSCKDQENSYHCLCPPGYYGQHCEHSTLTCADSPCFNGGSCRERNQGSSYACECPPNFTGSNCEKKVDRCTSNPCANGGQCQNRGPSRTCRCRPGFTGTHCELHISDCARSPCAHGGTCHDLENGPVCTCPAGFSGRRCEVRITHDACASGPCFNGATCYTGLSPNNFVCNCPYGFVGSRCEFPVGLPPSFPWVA
Put plainly: binding ELISA on coated recombinant mouse DLL4, OD 405 nm. The method, then: as §1

The target of the next experiment is T6, human DLL1 (human, UniProt O00548 18-545, limits assumed).
T6 construct: also called hDLL1
T6 sequence (looked up): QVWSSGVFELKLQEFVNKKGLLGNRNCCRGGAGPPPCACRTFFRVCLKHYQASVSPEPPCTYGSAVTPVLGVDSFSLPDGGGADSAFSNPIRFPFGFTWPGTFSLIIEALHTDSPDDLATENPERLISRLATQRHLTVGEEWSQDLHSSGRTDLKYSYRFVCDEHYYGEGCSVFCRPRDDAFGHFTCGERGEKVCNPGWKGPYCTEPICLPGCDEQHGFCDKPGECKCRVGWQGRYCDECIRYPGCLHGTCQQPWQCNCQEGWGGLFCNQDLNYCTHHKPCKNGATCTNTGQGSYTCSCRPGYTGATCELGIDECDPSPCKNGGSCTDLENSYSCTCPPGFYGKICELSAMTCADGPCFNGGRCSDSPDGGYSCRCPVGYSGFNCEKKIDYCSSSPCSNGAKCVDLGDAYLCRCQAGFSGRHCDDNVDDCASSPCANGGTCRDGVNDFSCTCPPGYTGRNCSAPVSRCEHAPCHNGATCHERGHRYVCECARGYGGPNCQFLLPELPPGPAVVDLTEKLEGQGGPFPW
The experiment can be described thus: binding ELISA on coated recombinant human DLL1, OD 405 nm. A digest of the protocol:
(§3)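 Plates coated overnight at 4° C with 1 μg/mL ligand, blocked with 1% casein in PBS. VHH dilution series applied; bound VHH detected via mouse anti-myc then anti-mouse-AP conjugate.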

The next experiment has as its target T7, human Jagged-1 (human, UniProt P78504 34-1067, limits assumed).
T7 construct: also called hJagged-1; hJAG1
Put plainly: binding ELISA on coated recombinant human Jagged-1, OD 405 nm. A digest of the protocol: as §3

The target of experiment [11] is T2, recombinant human DLL4. Put plainly: SPR Biacore T100, hDLL4 on chip; heterogeneous binding curve, no 1:1 fit. The method, then: Kinetic analysis to determine the affinity of the DII4-VHH interaction is performed by Surface Plasmon Resonance (SPR) on a Biacore T100 instrument. […] Purified VHHs or Fab fragment are injected for 2 minutes at different concentrations (between 10 and 300 nM) and allowed to dissociate for 20 min at a flow rate of 45 μl/min. Between sample injections, the surfaces are regenerated with 10 mM glycine pH1.5 and 100 mM HCl. HBS-N (Hepes buffer pH7.4) is used as running buffer. If possible, data are evaluated by fitting a 1:1 interaction model (Langmuir binding) onto the binding curves. The affinity constant KD is calculated from resulting association and dissociation rate constants (kₐ) and […].
A general note: SPR reads the build-up and loss of mass on a sensor chip optically.

Experiment [12] has as its target T4, mouse DLL4 overexpressed on cells. Put plainly: FMAT competition on CHO-mDLL4 cells; blocked ligand Alexa-647 labelled hNotch1-Fc.
The target in experiment [13] is T8, human DLL4 expressed on cells (CHO-hDLL4; HEK293-hDLL4) (human, UniProt Q9NR61 27-685).
T8 construct: full length human DLL4 overexpressed on CHO cells (FMAT, FACS) or HEK293 cells (reporter assay)
The experiment can be described thus: FMAT competition on CHO-hDLL4 cells; unlabelled rhNotch1-Fc competes with Alexa-647 labelled hNotch1-Fc.

Experiment [14] deals with T9, mouse DLL4 expressed on CHO cells (mouse, UniProt Q9JI71 27-686).
T9 construct: whole, on cells; also called mDLL4; CHO-mDLL4
Put plainly: FMAT competition on CHO-mDLL4 cells; unlabelled rhNotch1-Fc competes with Alexa-647 labelled hNotch1-Fc.

B1: DLLBII104G01 (VHH)
VHH: EVQLVESGGGLVQAGGSLRLSCAASGFTFDDYAIGWFRQAPGKEREGVSCISSSDGSTYYADSVKGRFTISSDNAKNTVYLQMNSLKPEDTAVYYCATAWCDSSWYRSFVGYWGQGTQVTVSS
notes: also called 104G1
As for B1, the “IC50, DLL4/Notch1 reporter assay” value in experiment [1] is 964 nM. In the experiment with recombinant human DLL4 [2], the “IC50 (nM) (experiment 1), DLL4 proliferation assay (HUVEC)” value turned out to be 103 nM. Further, the “IC50 (nM) (experiment 2), DLL4 proliferation assay (HUVEC)” value with recombinant human DLL4 [2] was 32 nM. The EC50 (usually the midpoint of the concentration-response curve) in the experiment with recombinant human DLL4 [3] stood at 8.4 nM. Further, the figures for the koff in the experiment with recombinant human DLL4 [4] and with recombinant human DLL4 [11] were 0.0012 s⁻¹ and 0.0006 to 0.003 s⁻¹, respectively. Further, the 50% inhibitory concentration (IC50) (usually the concentration that inhibits the measured activity by half) in [5] was 2.5 nM; in the experiment with recombinant human DLL4 [8], 1.1 nM. For the same molecule, the EC50 (read off the curve) – broadly, the concentration at which the effect is half-maximal – was ~4 nM in experiment [6] and ~5 nM in [7]. Besides, the “% inh” value in experiment [9] came out at 94%; in experiment [10], 86%. Besides, the binding result in the experiment with recombinant mouse DLL4, with human DLL1 and in the experiment with human Jagged-1 was “no binding (tested: 5e-7 M)” each time. Besides, in the experiment with recombinant human DLL4 [11], the equilibrium dissociation constant (Kd) (usually the constant that tells how readily two partners part at equilibrium) is 4 to 24 nM. Besides, the kon – broadly, the second-order rate constant of association – with recombinant human DLL4 [11] lay in the range of 120000 to 150000 M⁻¹ s⁻¹. Further, the “IC50 (read off the curve)” value in [12] was ~60 nM.

B2: human Notch1/Fc chimera (R&D Systems) (Fc fusion, UniProt P46531 19-526, looked up, not shown: a dimerising Fc or GST)
chain: ARGPRCSQPGETCLNGGKCEAANGTEACVCGGAFVGPRCQDPNPCLSTPCKNAGTCHVVDRRGVADYACSCALGFSGPLCLTPLDNACLTNPCRNGGTCDLLTLTEYKCRCPPGWSGKSCQQADPCASNPCANGGQCLPFEASYICHCPPSFHGPTCRQDVNECGQKPGLCRHGGTCHNEVGSYRCVCRATHTGPNCERPYVPCSPSPCQNGGTCRPTGDVTHECACLPGFTGQNCEENIDDCPGNNCKNGGACVDGVNTYNCRCPPEWTGQYCTEDVDECQLMPNACQNGGTCHNTHGGYNCVCVNGWTGEDCSENIDDCASAACFHGATCHDRVASFYCECPHGRTGLLCHLNDACISNPCNEGSNCDTNPVNGKAICTCPSGYTGPACSQDVDECSLGANPCEHAGKCINTLGSFECQCLQGYTGPRCEIDVNECVSNPCQNDATCLDQIGEFQCICMPGYEGVHCEVNTDECASSPCLHNGRCLDKINEFQCECPTGFTGHLCQ
modifications: Alexa-647 labelled in the FMAT assay
notes: also called hNotch1-Fc; rhNotch1/Fc
On to B2, for which the “IC50 (read off the curve)” value in experiment [13] is ~4 nM; in [14], ~2 nM.
